Assay results taken from publication PMC5339707, “ACCORD: an assessment tool to determine the orientation of homodimeric coiled-coils” (Scientific Reports, 2017).
“And” between values parts separate entries of the source, which are not always exact repeats. Equal values may be shown once. Read-outs that look alike come from different tables or passages of the source.

Columns and labels:
[1] = molecular target: His6-SspB-TPM1 (1-98) fusion protein (E. coli | G. gallus) (UniProt P0AFZ3); test: SEC-MALS; self-association of His6-SspB-CCD fusion proteins (ACCORD); Superdex 200 10/300 GL, 50 mM Tris pH 8.0, 0.5 mM TCEP, 200 mM NaCl; sample 3-5 mg/ml, 0.5 ml
[2] = molecular target: His6-SspB-Mfn1 (660-735) fusion protein (E. coli | M. musculus) (UniProt P0AFZ3); test: as above
[3] = molecular target: the molecule itself; test: as above
[4] = molecular target: the molecule itself; test: as above; remark: listed apart in the source
[5] = molecular target: the molecule itself; test: crystal structure; MBP-MDV1 fusion protein, hanging drop, 295 K, 100 mM sodium acetate pH 4.5, 25% PEG 3350, 100 mM CaCl2, 1.3-1.7 M sodium formate; molecular replacement
[6] = molecular target: the molecule itself; test: SAXS; MBP fusion proteins in 50 mM Tris pH 8.0, 0.5 mM TCEP, 100 mM NaCl; MBP-NDP52 2.6 mg/ml, MBP-MDV1 9.8 mg/ml; ab initio molecular envelope

Molecule	stoichiometry N [3]	further results
His6-SspB-TPM1 (1-98) fusion protein (from UniProt P0AFZ3 1-165; P04268 1-98)	–	stoichiometry N [1]: 2
His6-SspB-Mfn1 (660-735) fusion protein (from UniProt P0AFZ3 1-165; Q811U4 660-735)	–	stoichiometry N [2]: 4
His6-SspB-SCOC (78-159) fusion protein (other, E. coli | H. sapiens, UniProt P0AFZ3 1-165, looked up, Stringent starvation protein B (SspB), E. coli, full length, residues 1-165 (M1-K165), amplified from genomic DNA; Short coiled-coil protein (SCOC), human, coiled-coil domain, residues 78-159 (M78-K159); CCD ligated behind SspB in the His6-SspB vector (BamHI at the 5' end); vector holds TEV and thrombin cleavage sites; source: E. coli BL21(DE3), purified (HisTrap, Superdex 200); not shown: His6, …) MDLSQLTPRRPYLLRAFYEWLLDNQLTPHLVVDVTLPGVQVPMEYARDGQIVLNIAPRAVGNLELANDEVRFNARFGGIPRQVSVPLAAVLAIYARENGAGTMFEPEAAYDEDTSIMNDEEASADNETVMSVIDGDKPDHDDDTHPDDEPPQPPRGGRPALRVVKMMNADMDAVDAENQVELEEKTRLINQVLELQHTLEDLSARVDAVKEENLKLKSENQVLGQYIENLMSASSVFQTTDTKSKRK	2	–
His6-SspB-LRRFIP1 (162-249) fusion protein (other, E. coli | H. sapiens, UniProt P0AFZ3 1-165, looked up, Stringent starvation protein B (SspB), E. coli, full length, residues 1-165 (M1-K165), amplified from genomic DNA; CCD ligated behind SspB in the His6-SspB vector (BamHI at the 5' end); vector holds TEV and thrombin cleavage sites; source: E. coli BL21(DE3), purified (HisTrap, Superdex 200); not shown: His6, N-terminal, kept) MDLSQLTPRRPYLLRAFYEWLLDNQLTPHLVVDVTLPGVQVPMEYARDGQIVLNIAPRAVGNLELANDEVRFNARFGGIPRQVSVPLAAVLAIYARENGAGTMFEPEAAYDEDTSIMNDEEASADNETVMSVIDGDKPDHDDDTHPDDEPPQPPRGGRPALRVVKDSLAEVEEKYKKAMVSNAQLDNEKTNFMYQVDTLKDMLLELEEQLAESRRQYEEKNKEFEREKHAHSILQFQFAEVKEALKQREEMLE	2	–
His6-SspB-MYO10 (883-933) fusion protein (other, E. coli | human, UniProt P0AFZ3 1-165, looked up, Stringent starvation protein B (SspB), E. coli, full length, residues 1-165 (M1-K165), amplified from genomic DNA; also called human MYO10 CC; source: E. coli BL21(DE3), purified (HisTrap, Superdex 200)) MDLSQLTPRRPYLLRAFYEWLLDNQLTPHLVVDVTLPGVQVPMEYARDGQIVLNIAPRAVGNLELANDEVRFNARFGGIPRQVSVPLAAVLAIYARENGAGTMFEPEAAYDEDTSIMNDEEASADNETVMSVIDGDKPDHDDDTHPDDEPPQPPRGGRPALRVVKENKQVEEILRLEKEIEDLQRMKEQQELSLTEASLQKLQERRDQELRRLEEE	–	stoichiometry N [4]: 2
His6-SspB-Ndel1 (8-99) fusion protein (other, E. coli | R. norvegicus, UniProt P0AFZ3 1-165, looked up, Stringent starvation protein B (SspB), E. coli, full length, residues 1-165 (M1-K165), amplified from genomic DNA; Major peak a dimer; source: E. coli BL21(DE3), purified (HisTrap, Superdex 200); not shown: His6, N-terminal, kept) MDLSQLTPRRPYLLRAFYEWLLDNQLTPHLVVDVTLPGVQVPMEYARDGQIVLNIAPRAVGNLELANDEVRFNARFGGIPRQVSVPLAAVLAIYARENGAGTMFEPEAAYDEDTSIMNDEEASADNETVMSVIDGDKPDHDDDTHPDDEPPQPPRGGRPALRVVKDFSSLKEETAYWKELSLKYKQSFQEARDELVEFQEGSRELEAELEAQLVQAEQRNRDLQADNQRLKYEVEALKEKLEHQYAQSYKQVSVLED	2	–
His6-SspB-MDV1 (231-300) fusion protein (other, E. coli | S. cerevisiae, UniProt P0AFZ3 1-165, looked up, Stringent starvation protein B (SspB), E. coli, full length, residues 1-165 (M1-K165), amplified from genomic DNA; Mitochondrial division protein 1 (MDV1), S. cerevisiae, coiled-coil domain, residues 231-300 (Q231-G300); Seen as a tetramer (main fraction) and a dimer (significant proportion); source: E. coli BL21(DE3), purified (HisTrap, Superdex 200); not shown: His6, N-terminal, kept) MDLSQLTPRRPYLLRAFYEWLLDNQLTPHLVVDVTLPGVQVPMEYARDGQIVLNIAPRAVGNLELANDEVRFNARFGGIPRQVSVPLAAVLAIYARENGAGTMFEPEAAYDEDTSIMNDEEASADNETVMSVIDGDKPDHDDDTHPDDEPPQPPRGGRPALRVVKQTLVNSLEFLNIQKNSTLSEIRDIEVEVENLRQKKEKLLGKIANIEQNQLLLEDNLKQIDDRLDFLEEYG	4 and 2	–
His6-SspB-NDP52 (141-334) fusion protein (other, E. coli | H. sapiens, UniProt P0AFZ3 1-165, looked up, Stringent starvation protein B (SspB), E. coli, full length, residues 1-165 (M1-K165), amplified from genomic DNA; source: E. coli BL21(DE3), purified (HisTrap, Superdex 200); not shown: His6, N-terminal, kept) MDLSQLTPRRPYLLRAFYEWLLDNQLTPHLVVDVTLPGVQVPMEYARDGQIVLNIAPRAVGNLELANDEVRFNARFGGIPRQVSVPLAAVLAIYARENGAGTMFEPEAAYDEDTSIMNDEEASADNETVMSVIDGDKPDHDDDTHPDDEPPQPPRGGRPALRVVKEVEEIEQHNKELCKENQELKDSCISLQKQNSDMQAELQKKQEELETLQSINKKLELKVKEQKDYWETELLQLKEQNQKMSSENEKMGIRVDQLQAQLSTQEKEMEKLVQGDQDKTEQLEQLKKENDHLFLSLTEQRKDQKKLEQTVEQMKQNETTAMKKQQELMDENFDLSKRLSENEIICNALQRQKERLEGE	2	–
His6-SspB-Atg16 (58-130) fusion protein (other, E. coli | S. cerevisiae, UniProt P0AFZ3 1-165, looked up, Stringent starvation protein B (SspB), E. coli, full length, residues 1-165 (M1-K165), amplified from genomic DNA; Autophagy protein 16 (Atg16), S. cerevisiae, coiled-coil domain, residues 58-130 (V58-R130); source: E. coli BL21(DE3), purified (HisTrap, Superdex 200); not shown: His6, N-terminal, kept) MDLSQLTPRRPYLLRAFYEWLLDNQLTPHLVVDVTLPGVQVPMEYARDGQIVLNIAPRAVGNLELANDEVRFNARFGGIPRQVSVPLAAVLAIYARENGAGTMFEPEAAYDEDTSIMNDEEASADNETVMSVIDGDKPDHDDDTHPDDEPPQPPRGGRPALRVVKVSHDDALLNTLAILQKELKSKEQEIRRLKEVIALKNKNTERLNDELISGTIENNVLQQKLSDLKKEHSQLVAR	2	–
His6-SspB-ROCK1 (535-709) fusion protein (other, E. coli | H. sapiens, UniProt P0AFZ3 1-165, looked up, Stringent starvation protein B (SspB), E. coli, full length, residues 1-165 (M1-K165), amplified from genomic DNA; Rho-associated coiled-coil containing protein kinase 1 (ROCK1), human, coiled-coil domain, residues 535-709 (L535-K709); CCD ligated behind SspB in the His6-SspB vector (BamHI at the 5' end); vector holds TEV and thrombin cleavage sites; source: E. coli BL21(DE3), purified (HisTrap, …)) MDLSQLTPRRPYLLRAFYEWLLDNQLTPHLVVDVTLPGVQVPMEYARDGQIVLNIAPRAVGNLELANDEVRFNARFGGIPRQVSVPLAAVLAIYARENGAGTMFEPEAAYDEDTSIMNDEEASADNETVMSVIDGDKPDHDDDTHPDDEPPQPPRGGRPALRVVKLANEKLSQLQKQLEEANDLLRTESDTAVRLRKSHTEMSKSISQLESLNRELQERNRILENSKSQTDKDYYQLQAILEAERRDRGHDSEMIGDLQARITSLQEEVKHLKHNLEKVEGERKEAQDMLNHSEKEKNNLEIDLNYKLKSLQQRLEQEVNEHKVTKARLTDKHQSIEEAK	2	–
MBP-MDV1 (231-300) fusion protein (domain or fragment, S. cerevisiae, UniProt P47025 231-300, looked up, Mitochondrial division protein 1 (MDV1), S. cerevisiae, coiled-coil domain, residues 231-300; Modified pMAL vector; the whole chain is in PDB 5JST; source: E. coli BL21(DE3), purified (amylose resin, Q-FF, Superdex 200)) QTLVNSLEFLNIQKNSTLSEIRDIEVEVENLRQKKEKLLGKIANIEQNQLLLEDNLKQIDDRLDFLEEYG	–	binding result [5]: binds
MBP-NDP52 (197-270) fusion protein (domain or fragment, H. sapiens, UniProt Q13137 197-270, looked up, Modified pMAL vector; source: E. coli BL21(DE3), purified (amylose resin, Q-FF, Superdex 200)) KVKEQKDYWETELLQLKEQNQKMSSENEKMGIRVDQLQAQLSTQEKEMEKLVQGDQDKTEQLEQLKKENDHLFL	–	binding result [6]: binds
His6-SspB-APC (2-55) fusion protein (other, E. coli | H. sapiens, UniProt P0AFZ3 1-165, looked up, Stringent starvation protein B (SspB), E. coli, full length, residues 1-165 (M1-K165), amplified from genomic DNA; Adenomatous polyposis coli protein (APC), human, coiled-coil domain, residues 2-55 (A2-I55); CCD ligated behind SspB in the His6-SspB vector (BamHI at the 5' end); vector holds TEV and thrombin cleavage sites; source: E. coli BL21(DE3), purified (HisTrap, Superdex 200); not shown: …) MDLSQLTPRRPYLLRAFYEWLLDNQLTPHLVVDVTLPGVQVPMEYARDGQIVLNIAPRAVGNLELANDEVRFNARFGGIPRQVSVPLAAVLAIYARENGAGTMFEPEAAYDEDTSIMNDEEASADNETVMSVIDGDKPDHDDDTHPDDEPPQPPRGGRPALRVVKAAASYDQLLKQVEALKMENSNLRQELEDNSNHLTKLETEASNMKEVLKQLQGSI	2	–
His6-SspB-TRIM25 (194-356) fusion protein (other, E. coli | H. sapiens, UniProt P0AFZ3 1-165, looked up, Stringent starvation protein B (SspB), E. coli, full length, residues 1-165 (M1-K165), amplified from genomic DNA; source: E. coli BL21(DE3), purified (HisTrap, Superdex 200); not shown: His6, N-terminal, kept) MDLSQLTPRRPYLLRAFYEWLLDNQLTPHLVVDVTLPGVQVPMEYARDGQIVLNIAPRAVGNLELANDEVRFNARFGGIPRQVSVPLAAVLAIYARENGAGTMFEPEAAYDEDTSIMNDEEASADNETVMSVIDGDKPDHDDDTHPDDEPPQPPRGGRPALRVVKASADLEATLRHKLTVMYSQINGASRALDDVRNRQQDVRMTANRKVEQLQQEYTEMKALLDASETTSTRKIKEEEKRVNSKFDTIYQILLKKKSEIQTLKEEIEQSLTKRDEFEFLEKASKLRGISTKPVYIPEVELNHKLIKGIHQSTIDLKNELKQCIGRLQ	4	–
